Several values for one entry are separate records, joined by “and”; a condition that tells them apart may be missing. Identical values can stand only once.

The record followed here is paper PMC6635409.

The target in the assay is nicotinic acetylcholine receptor subunit α9 (CHRNA9) (human (endogenous in BT474, MDA-MB-231, A549, RT4, MIA PaCa-2 and clinical breast tumors)) (UniProt Q9UGM1). Nature of the assay: co-IP; endogenous proteins in MDA-MB-231 cells; reciprocal IPs, 1% NP40 lysis buffer, Protein G beads; IP ratio (IPR) against input, threshold >3% in both.
UniProt Q9UGM1, sequence (Q9UGM1 23-479): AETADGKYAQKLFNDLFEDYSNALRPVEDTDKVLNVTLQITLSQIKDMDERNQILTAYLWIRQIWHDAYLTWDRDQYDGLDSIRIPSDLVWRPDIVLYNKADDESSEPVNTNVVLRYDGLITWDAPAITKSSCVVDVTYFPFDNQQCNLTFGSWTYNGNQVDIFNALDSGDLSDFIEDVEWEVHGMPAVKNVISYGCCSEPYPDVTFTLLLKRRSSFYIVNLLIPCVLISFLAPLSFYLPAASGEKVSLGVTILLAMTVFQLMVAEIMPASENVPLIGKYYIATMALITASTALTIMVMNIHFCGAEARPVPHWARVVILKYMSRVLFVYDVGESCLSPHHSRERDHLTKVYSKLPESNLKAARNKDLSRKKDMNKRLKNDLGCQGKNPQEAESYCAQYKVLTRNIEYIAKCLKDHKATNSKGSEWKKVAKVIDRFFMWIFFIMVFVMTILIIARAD

On to “ABCB1 (from UniProt P08183 1-1280) (natural protein)”, for which the IP ratio (IPR) is 3.05% and 25.1%.
